Laboratory results from the supplement of paper PMC12764529.
± gives the half width of the 95% confidence interval.

Tests used:
[1] = folding stability dG unfold from chymotrypsin proteolysis; higher = more stable
Procedure, shortened: (§1)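 Bayesian fitting of sequencing counts gave K50 for each design. Unfolding free energy followed by setting this against a sequence-predicted unfolded-state K50 and a shared folded-state K50, either per protease or with trypsin and chymotrypsin combined. The designs, under 80 residues and lacking cysteine, were digested in a PA-tagged cDNA display format at 11 threefold-diluted protease concentrations and without protease, and only those with AlphaFold2 dimer inter-PAE above 15 were kept.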

[2] = folding stability dG unfold (combined trypsin and chymotrypsin); higher = more stable
Procedure, shortened: as §1

[3] = folding stability dG unfold from trypsin proteolysis; higher = more stable
Procedure, shortened: as §1

## SAGMGEAELAAARAANPDRPLVPVETYEIPLPPDVSLEEVEKELREKYPPGKVKVTADPATGTVTITISSAG [r5_694_JUSTAS]
[1]
  folding stability dG unfold: 0.969 ± 0.04 kcal/mol
[2]
  folding stability dG unfold: 0.684 ± 0.15 kcal/mol
[3]
  folding stability dG unfold: -0.221 ± 0.14 kcal/mol

## SAMEALEEAGFEVVEVEEVEERELPDGKRLVRLRITVRRDGKLVELEIVVPEENEEEALRAALELLREESAG [r14_726_TrROS_Hall]
[1]
  folding stability dG unfold: 4.4 ± 0.099 kcal/mol
[2]
  folding stability dG unfold: 4.44 ± 0.11 kcal/mol
[3]
  folding stability dG unfold: 4.49 ± 0.18 kcal/mol

## SAGGMPLRFRIEVYKTETYYDPSTGKEVTKVEPLPELEIEAPPNTPLEAILAALDLPEDYYISRIGVESAGG [r13_716_TrMRF]
[1]
  folding stability dG unfold: 2.55 ± 0.026 kcal/mol
[2]
  folding stability dG unfold: 2.43 ± 0.049 kcal/mol
[3]
  folding stability dG unfold: 2.06 ± 0.065 kcal/mol

## SAGGSAGGSNMPPGMEVEMEPIIEREIKNPNGRKLKIKIYVMKIRPPGGPPMFFIALDIQILDSAGGSAGGS [r12_544_TrROS]
[1]
  folding stability dG unfold: 5.03 ± 0.28 kcal/mol
[2]
  folding stability dG unfold: 4.52 ± 0.22 kcal/mol
[3]
  folding stability dG unfold: 3.48 ± 0.16 kcal/mol

## SAGGSGKIKEAVEAAIENPGKTVEVTVERPDGYPVKIKVDPKTGKITLEVIHPDGTTSRKEFEIKPSAGGSA [r2_263_TrMRF]
[1]
  folding stability dG unfold: 0.669 ± 0.046 kcal/mol
[2]
  folding stability dG unfold: 0.83 ± 0.17 kcal/mol
[3]
  folding stability dG unfold: 0.807 ± 0.071 kcal/mol

## SAGGSAGTVKFKQPFPFYDPGNGWPFPIDIKITVEYKPDPNGEPKWQITKIEIKMPEGSPALKDLISAGGSA [r15_258_TrROS]
[1]
  folding stability dG unfold: 2.24 ± 0.048 kcal/mol
[2]
  folding stability dG unfold: 2 ± 0.14 kcal/mol
[3]
  folding stability dG unfold: 1.82 ± 0.11 kcal/mol

## SAGGSAGGSAGGSLIVPAKDAVRFAEEWRRRFGGRFEIRGIPGIPFVPILVRPPDPAEFSAGGSAGGSAGGS [r4_419_TrMRF]
[1]
  folding stability dG unfold: 0.703 ± 0.096 kcal/mol
[2]
  folding stability dG unfold: 0.491 ± 0.097 kcal/mol
[3]
  folding stability dG unfold: -0.418 ± 0.38 kcal/mol

## SAGGSAGGSAGGGSIVIENPEKGLTLTYDPATGNVTITFPGGERKVSPVGSIEKAKELLSAGGSAGGSAGGS [r10_849_JUSTAS]
[1]
  folding stability dG unfold: 1.15 ± 0.028 kcal/mol
[2]
  folding stability dG unfold: 1.02 ± 0.06 kcal/mol
[3]
  folding stability dG unfold: 0.787 ± 0.059 kcal/mol

## SYDHMRKWIKQAAQERGLKVTNIDIEPTPKTNTFKMSIEIPNGREINFEFQHDKNGGWQFTIQQIKNALKSA [r9_85_TrROS]
[1]
  folding stability dG unfold: 2.8 ± 0.039 kcal/mol
[2]
  folding stability dG unfold: 2.69 ± 0.2 kcal/mol
[3]
  folding stability dG unfold: 2.07 ± 0.084 kcal/mol

## SAGGKMTLKDIEIIEVIEKDGEIEVVLIRNKKTNKVIAIPREDLEKLLSLPEDVEVVRLRIKPGEKLSAGGS [r16_61_TrROS_Hall]
[1]
  folding stability dG unfold: 1.34 ± 0.15 kcal/mol
[2]
  folding stability dG unfold: 1.32 ± 0.18 kcal/mol
[3]
  folding stability dG unfold: 1.3 ± 0.07 kcal/mol

## SAGGSAGGRTLRIMVPMDSPEDAVEQAKEIVRELGLPPNFKIDDINVHRNPNGRYQVMVKIRVNSAGGSAGG [r6_284_TrROS]
[1]
  folding stability dG unfold: 1.5 ± 0.07 kcal/mol
[2]
  folding stability dG unfold: 1.35 ± 0.064 kcal/mol
[3]
  folding stability dG unfold: 1.05 ± 0.052 kcal/mol

## SAGGSAGGSAGGPVVIRLKVDMSPEEVEALAKELASLPNVKVEWDEESRVLTVTLSEEDLSAGGSAGGSAGG [r7_219_TrROS_Hall]
[1]
  folding stability dG unfold: 2.98 ± 0.056 kcal/mol
[2]
  folding stability dG unfold: 2.72 ± 0.099 kcal/mol
[3]
  folding stability dG unfold: 2.46 ± 0.09 kcal/mol

## SAGGSAGGSPLAPGQTVTVRVERVDGPVVITVRNEATGETLTLTFDRPAEDLKPGDTVTVTVTSAGGSAGGS [r12_525_TrROS_Hall]
[1]
  folding stability dG unfold: 2.897 ± 0.021 kcal/mol
[2]
  folding stability dG unfold: 2.54 ± 0.045 kcal/mol
[3]
  folding stability dG unfold: 2.05 ± 0.039 kcal/mol

## SAGGAKELFEAIPGAEAEYDPETGTLRVRFEFPDYTVLVEIPTDKETGEVLGVRVYVIDKDGVPHEIDLSAG [r5_367_TrMRF]
[1]
  folding stability dG unfold: 4.81 ± 0.15 kcal/mol
[2]
  folding stability dG unfold: 4.52 ± 0.23 kcal/mol
[3]
  folding stability dG unfold: 3.26 ± 0.24 kcal/mol

## SAGATLLEERELPDGSRVEVYREPDKLIVRVFSPDREVETRVFPLPPEPPLPVVPVVVDPARGRFVRLSAGG [r19_254_JUSTAS]
[1]
  folding stability dG unfold: -0.00636 ± 0.11 kcal/mol
[2]
  folding stability dG unfold: -0.106 ± 0.077 kcal/mol
[3]
  folding stability dG unfold: -0.621 ± 0.19 kcal/mol

## SAGLFITVEANPNNGTMRITLYRMEPRKDGDGPKMDIEPIAEIEVPMESPEEARDKAKDKAKNLLDKFNSAG [r5_956_TrROS]
[1]
  folding stability dG unfold: 1.85 ± 0.14 kcal/mol
[2]
  folding stability dG unfold: 1.58 ± 0.11 kcal/mol
[3]
  folding stability dG unfold: 1.06 ± 0.064 kcal/mol

## SAGMVTISVTRPSSGTYVLNISNPLTGETETITLSTADPAAFKATAEAIAAELEAKGYPVKINLTPTAGSAG [r5_815_JUSTAS]
[1]
  folding stability dG unfold: 3.788 ± 0.014 kcal/mol
[2]
  folding stability dG unfold: 3.73 ± 0.048 kcal/mol
[3]
  folding stability dG unfold: 3.6 ± 0.063 kcal/mol

## SSPKIVVEVTLDGNPRTITIPSSLSLEEIKEKILEALKEEGIEDVPIEEIKIKKEEELPTEEGESKIVVSSA [r9_1053_JUSTAS]
[1]
  folding stability dG unfold: 2.08 ± 0.087 kcal/mol
[2]
  folding stability dG unfold: 1.76 ± 0.15 kcal/mol
[3]
  folding stability dG unfold: 0.999 ± 0.066 kcal/mol

## SAGGSPSTARTVELEFNPNEVTLEKIKELLEELGFKGITSITVESTPDSLTITLTDPNGAPSVVRVISAGGS [r8_86_JUSTAS]
[1]
  folding stability dG unfold: 2.66 ± 0.075 kcal/mol
[2]
  folding stability dG unfold: 2.43 ± 0.047 kcal/mol
[3]
  folding stability dG unfold: 2.05 ± 0.049 kcal/mol

## SAGMEVKITVEREEDGTLRITITVRPDMTPEELAALLEEELGLEVRVVRDEETGERVLEIEIPLPEELESAG [r5_742_TrROS_Hall]
[1]
  folding stability dG unfold: 2.16 ± 0.072 kcal/mol
[2]
  folding stability dG unfold: 2.39 ± 0.11 kcal/mol
[3]
  folding stability dG unfold: 2.64 ± 0.12 kcal/mol

## SAGSAYRIEVYNPETGKKVEIFVFPNGEALVKEEDGFSKIYIDPSKPEQVEAIAKEIEPLGVEVKISPWSAG [r5_791_TrMRF]
[1]
  folding stability dG unfold: 1.29 ± 0.29 kcal/mol
[2]
  folding stability dG unfold: 1.35 ± 0.34 kcal/mol
[3]
  folding stability dG unfold: 1.4 ± 0.1 kcal/mol

## SAGKKKTLTLTLGNVTITITYDEDTGTLRIKVTATVTTVTLDKDTKELTTEKKTVTTEIEIPLAPGATLSAG [r5_195_TrROS_Hall]
[1]
  folding stability dG unfold: 2.79 ± 0.086 kcal/mol
[2]
  folding stability dG unfold: 2.67 ± 0.2 kcal/mol
[3]
  folding stability dG unfold: 2.76 ± 0.18 kcal/mol

## SAGMTAEELAAEALAKLPPGAKEVTVEIEVNGELVTVTITVEAAPPPPPPEETITTVDEDTGEVREETLSAG [r5_236_TrROS_Hall]
[1]
  folding stability dG unfold: 0.119 ± 0.034 kcal/mol
[2]
  folding stability dG unfold: 0.854 ± 0.068 kcal/mol
[3]
  folding stability dG unfold: 1.44 ± 0.058 kcal/mol

## MTITVRFTFQTEEEAEKAAEEVKRKLAEELGLSEEVLKKIPVEVKRTETGSENGEPVYEVTVTFKLPEELLS [r1_81_JUSTAS]
[1]
  folding stability dG unfold: 4.94 ± 0.084 kcal/mol
[2]
  folding stability dG unfold: 4.84 ± 0.084 kcal/mol
[3]
  folding stability dG unfold: 4.17 ± 0.14 kcal/mol

## SAGGSAGGSAGGMEVVIPLDKNERYLAYVLGEPKFVEFDPEKGYLVIPNTPPENVIVVKYSAGGSAGGSAGG [r7_200_TrMRF]
[1]
  folding stability dG unfold: 0.418 ± 0.15 kcal/mol
[2]
  folding stability dG unfold: 0.325 ± 0.1 kcal/mol
[3]
  folding stability dG unfold: 0.248 ± 0.05 kcal/mol

## SAGRFIRIRFKDPGMSMDNLVKEIKEELGIPPDHKVTIDWEPDPNGGYEITIQVDDPQVRDKILEALRSAGG [r19_215_TrROS]
[1]
  folding stability dG unfold: 2.5 ± 0.081 kcal/mol
[2]
  folding stability dG unfold: 2.97 ± 0.15 kcal/mol
[3]
  folding stability dG unfold: 3.46 ± 0.1 kcal/mol

## IEEIKNFAKKHGFNVKIEPVKVDSEEEAKEEAEDHEKKNGYPTIIIKNPENGEIVWVIKIRPPPPPPGQPPS [r1_179_TrROS]
[1]
  folding stability dG unfold: 3.89 ± 0.17 kcal/mol
[2]
  folding stability dG unfold: 3.18 ± 0.31 kcal/mol
[3]
  folding stability dG unfold: 2.51 ± 0.22 kcal/mol

## SAMYTLRTISYDPNTGVRKLELTVDPAHPDRPVPEAVTQAVADAYAAQGWSVTVTRHPDGSVVIDVPVPSAG [r14_865_JUSTAS]
[1]
  folding stability dG unfold: 1.86 ± 0.027 kcal/mol
[2]
  folding stability dG unfold: 1.88 ± 0.022 kcal/mol
[3]
  folding stability dG unfold: 1.84 ± 0.031 kcal/mol

## SAGMTPDTTLPDLVVTIYSPDGTSTTYTFPNVTRVTEVDPETGKLTLYSPEGRTITLTLSPDEKVEIVGSAG [r5_762_JUSTAS]
[1]
  folding stability dG unfold: 3.024 ± 0.027 kcal/mol
[2]
  folding stability dG unfold: 2.84 ± 0.037 kcal/mol
[3]
  folding stability dG unfold: 2.45 ± 0.035 kcal/mol

## SAGGSAKEIKPGEKIKVRNKETGKWFEATVTEVKKLENGELYVKVEVTIDGKTYTVTIPLKDIEVVSAGGSA [r15_62_TrROS_Hall]
[1]
  folding stability dG unfold: 4.72 ± 0.3 kcal/mol
[2]
  folding stability dG unfold: 4.88 ± 0.55 kcal/mol
[3]
  folding stability dG unfold: 4.3 ± 0.37 kcal/mol

## SAGMKKGDKFTVEFDLDPETRAEVEALLAAPGFAAEFDPSTGRLTLTLPSEIIDEVKKFPHIKKITKISAGG [r19_212_JUSTAS]
[1]
  folding stability dG unfold: 1.79 ± 0.044 kcal/mol
[2]
  folding stability dG unfold: 1.68 ± 0.083 kcal/mol
[3]
  folding stability dG unfold: 1.05 ± 0.068 kcal/mol
